According to paper PMC4140852 (PLoS Pathogens, 2014):

B1: rAPRc_(99–231), intermediate of activation of RC1339/APRc (Aspartic Protease from Rickettsia conorii) soluble catalytic domain, C-terminal His-tag (domain or fragment)
chain: SALIPSYKWSTEVGEIIIARNRDGHFYINAFVNNVKIKFMVDTGASDIALTKEDAQKLGFDLTKLKYTRTYLTANGENKAAPITLNSVVIGKEFKNIKGHVGLGDLDISLLGMSLLERFKGFRIDKDLLILNY
notes: also called rAPRc99–231-His; APRc_(99–231)His; not shown: His6, C-terminal, kept
B2: rAPRc_(105–231), activation product derived from rAPRc_(99–231) by auto-processing (enzyme)
chain: YKWSTEVGEIIIARNRDGHFYINAFVNNVKIKFMVDTGASDIALTKEDAQKLGFDLTKLKYTRTYLTANGENKAAPITLNSVVIGKEFKNIKGHVGLGDLDISLLGMSLLERFKGFRIDKDLLILNY

Target: the molecule itself
Assay: cross-linking

Protein | stoichiometry N
B1 | 2
B2 | 2
